# Results as given in publication PMC3742443, “A Bacteriophage Tailspike Domain Promotes Self-Cleavage of a Human Membrane-Bound Transcription Factor, the Myelin Regulatory Factor MYRF” (PLoS Biology, 2013).
# B1: StrepII-MYRF-319:577, the N-terminal fragment from the auto-processing of StrepII-MYRF-319:708-10xHis (domain or fragment, human, UniProt Q9Y2G1-2 319-577, looked up)
# chain: PSPGLLQDSDSLSGSYLDPNYQSIKWQPHQQNKWATLYDANYKELPMLTYRVDADKGFNFSVGDDAFVCQKKNHFQVTVYIGMLGEPKYVKTPEGLKPLDCFYLKLHGVKLEALNQSINIEQSQSDRSKRPFNPVTVNLPPEQVTKVTVGRLHFSETTANNMRKKGKPNPDQRYFMLVVALQAHAQNQNYTLAAQISERIIVRASNPGQFESDSDVLWQRAQVPDTVFHHGRVGINTDRPDEALVVHGNVKVMGSLMHP
# notes: Myelin regulatory factor MYRF (C11orf9), human, 1111-amino-acid-long isoform; numbers count on: the 1111-amino-acid isoform (NP_037411); Cloned in pET52b between BamHI and SacI; The C-terminal 10xHis stays on the other cleavage product; also called N-terminal fragment of MYRF-319:708; source: E. coli BL21 Star (DE3) pLysS, cut product of StrepII-MYRF-319:708-10xHis, purified (Ni-NTA flow-through, …)
# Target: the molecule itself
# Assay: SEC; Superdex 200 10/300 GL; protein dialysed in 20 mM HEPES pH 7.5, 50 mM NaCl, 10 mM β-mercaptoethanol, 10% glycerol, about 2 mg/ml; size by comparison with a standard curve
protein,measurement,value
B1,stoichiometry N,3
